# B1: MavRel_(1–444) (domain or fragment, Mycobacterium avium subsp. avium, UniProt A0ACG7XC01 1-444, looked up)
# chain: MAEENSAAQALDAPAESPPNPVIETPEPPTESLKTSSSASRRVRARLARRMTAQRSTLNPVLEPLVAMHREIYPKANVQLLQRAFEVADQRHASQLRHSGDPYITHPLAVATILAELGMDTTTLVAALLHDTVEDTGYTLAQLSEEFGEEVGHLVDGVTKLDRVVLGSAAEGETIRKMITAMARDPRVLVIKVADRLHNMRTMRFLPPEKQARKARETLEVIAPLAHRLGMASVKWELEDLSFAILHPKKYDEIVRLVAGRAPSRDTYLAKVRAEIINTLNASKIKATVEGRPKHYWSIYQKMIVKGRDFDDIHDLVGIRILCDEIRDCYAAVGVVHSLWQPMAGRFKDYIAQPRYGVYQSLHTTVVGPEGKPLEVQIRTRDMHRTAEYGIAAHWRYKEAKGRNGVPHPHAAAEIDDMAWMRQLLDWQREAADPGEFLESLRYD
# notes: The N-terminal His6 tag is stated for the parent relA construct in pET29b; also called MavRel NTD; N-terminal domain (NTD) of MavRel; source: E. coli C41(DE3), purified (Ni-NTA, SEC)
# B2: MavRel_(51–444) (domain or fragment)
# chain: MTAQRSTLNPVLEPLVAMHREIYPKANVQLLQRAFEVADQRHASQLRHSGDPYITHPLAVATILAELGMDTTTLVAALLHDTVEDTGYTLAQLSEEFGEEVGHLVDGVTKLDRVVLGSAAEGETIRKMITAMARDPRVLVIKVADRLHNMRTMRFLPPEKQARKARETLEVIAPLAHRLGMASVKWELEDLSFAILHPKKYDEIVRLVAGRAPSRDTYLAKVRAEIINTLNASKIKATVEGRPKHYWSIYQKMIVKGRDFDDIHDLVGIRILCDEIRDCYAAVGVVHSLWQPMAGRFKDYIAQPRYGVYQSLHTTVVGPEGKPLEVQIRTRDMHRTAEYGIAAHWRYKEAKGRNGVPHPHAAAEIDDMAWMRQLLDWQREAADPGEFLESLRYD
# notes: source: E. coli C41(DE3), purified (Ni-NTA, SEC)
# Experiments:
# [1] = target: T1, MavRel ACT domain (Mycobacterium avium, UniProt A0ACG7XC01); conditions: protein (dimer):valine 1:10 and 1:50; 50 mM Tris pH 8.5, 100 mM NaCl, 5% glycerol; 298 K; cleft at dimer interface
# T1 construct: gene relA
# [2] = test system: MavRel TGS Y473W (Mycobacterium avium subsp. avium ATCC 25291); experiment: tryptophan fluorescence quenching; conditions: 50 mM Tris-HCl pH 8.5, 350 mM NaCl, 1 mM DTT; excitation 295 nm, emission 355 nm; temperature not stated
# [3] = test system: MavRel Y473W (full length) (Mycobacterium avium subsp. avium ATCC 25291); experiment: tryptophan fluorescence quenching; conditions: 50 mM Tris-HCl pH 8.5, 350 mM NaCl, 1 mM DTT; excitation 295 nm, emission 355 nm; temperature not stated
# [4] = target: the molecule itself; experiment: SEC
molecule,measurement,setting,value
CC(C)[C@H](N)C(=O)O [valine],chemical shift perturbation,[1],indicates MavRel ACT:valine binding as well as a change in conformation
deacylated E. coli tRNA,Kd,[2],0.65 µM
same,Kd,[3],1.67 µM
B1,stoichiometry N,[4],2
B2,stoichiometry N,[4],2
